Source: patent US20210244815A1 (Genentech, published 2021)

B1: Ly6G6D (40G5c) TDB (bispecific antibody, part only; not given: anti-Ly6G6D arm and constant regions, V domains shown, not shown: another chain or arm of the molecule; a dimerising Fc or GST; small tags and cut ends)
VH: QVQLQQSGPELVKPGASVKISCKASGYTFTNYYIHWVKQRPGQGLEWIGWIYPGDGNTKYNEKFKGKATLTADTSSSTAYMQLSSLTSEDSAVYYCARDSYSNYYFDYWGQGTTLTVSS
VL: DIVMTQSPSSLAVSAGEKVTMSCKSSQSLLNSRTRKNYLAWYQQKPGQSPKLLIYWASTRESGVPDRFTGSGSGTDFTLTISSVQAEDLAVYYCTQSFILRTFGGGTKLEIK
B2: anti-CD3 Fab 38E4v11 (Fab, V domains shown)
VH: EVQLVQSGAEVKKPGASVKVSCKASGFTFTSYYIHWVRQAPGQGLEWIGWIYPENDNTKYNEKFKDRVTITADTSTSTAYLELSSLRSEDTAVYYCARDGYSRYYFDYWGQGTLVTVSS
VL: DIVMTQSPDSLAVSLGERATINCKSSQSLLNSRTRKNYLAWYQQKPGQSPKLLIYWTSTRKSGVPDRFSGSGSGTDFTLTISSLQAEDVAVYYCTQSFILRTFGQGTKVEIK
notes: Tested as a Fab from a mammalian Fab expression construct with a Flag tag (293T cells, purified on an anti-Flag column)

How the values were obtained:
CD3 = test: method not stated
CD3ε = molecular target: T1, CD3ε (UniProt P07766 23-126, limits assumed); test: SPR, Biacore T200, CD3ε immobilized on CM5, Fab injected
T1 construct: The antigen in the Biacore assay is called only 'CD3ε'; also called CD3ε antigen
Protocol: The binding affinity of selected Fab variants for CD3ε was measured by SPR with a BIACORE® T200 instrument. Briefly, a series S sensor chip CM5 was activated with 1-ethyl-3-(3-dimethylaminopropyl) carbodiimide (EDC) and N-hydroxysuccinimide (NHS) reagents according to the supplier's instructions, and 5 μg/ml CD3ε in 10 mM sodium acetate (pH4.0) was coupled to achieve 100 response units (RU), except for FC1 (which served as a reference). Unreacted groups were then blocked with 1 M ethanolamine. Next, three-fold serial dilutions of Fab in HBS-P buffer (0.01 M HEPES pH 7.4, 0.15M NaCl, 0.005% surfactant P20) from low (0.02 nM) to high (20 nM) were injected (flow rate: 30 μl/min). The binding responses on Fab were corrected by subtracting of RU from a blank flow cell. The sensorgram was recorded and subject to reference and buffer subtraction before evaluating by BIACORE® T200 Evaluation Software (Version 2.0). Association rates (kₐ) and dissociation rates (kd) were calculated using a simple one-to-one Langmuir binding model. The equilibrium dissociation constant (KD) was calculated as the ratio of kd/kₐ. The binding affinity kinetics were determined for a high-affinity anti-CD3 Fab, 38E4v11, having the heavy chain and light chain variable domain sequences set forth in FIG. 1.

Chain of CD3 (P07766 22-207): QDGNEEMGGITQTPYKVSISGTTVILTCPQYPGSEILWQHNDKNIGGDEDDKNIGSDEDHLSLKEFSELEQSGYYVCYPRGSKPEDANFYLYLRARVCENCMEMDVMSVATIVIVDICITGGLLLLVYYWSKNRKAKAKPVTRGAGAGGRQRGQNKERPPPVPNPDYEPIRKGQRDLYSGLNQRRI
T1 sequence (P07766 23-126 limits assumed): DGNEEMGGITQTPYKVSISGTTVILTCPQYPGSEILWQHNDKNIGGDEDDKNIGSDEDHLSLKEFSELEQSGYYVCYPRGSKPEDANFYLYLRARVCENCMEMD

| Binder | Kd (CD3) | fold increase in binding affinity relative to parent 38E4v1 (CD3ε) |
| --- | --- | --- |
| B1 | 0.051 µM |  |
| B2 |  | > 10 fold |
